Legend:
[1] = target: T1, unmodified H3 peptide of the tryptophan fluorescence and NMR titration experiments; assay: tryptophan fluorescence; details: chain shown with the change; H3 (1–12) peptide; triplicates
T1 chain: ARTKQTARKSTG

[2] = target: T2, H3K4ac peptide of the tryptophan fluorescence and NMR titration experiments; assay: tryptophan fluorescence; details: chain shown with the change; H3K4ac (1–12) peptide; triplicates
T2 chain: ARTKQTAR

Kd [1]: 271 µM | Kd [2]: 294 µM
B1: ZZZ3 ZZ domain (aa 800–903), GST cleaved, Q8IYH5 F821A (protein)
chain: KLKKQKLQQMQAESGFVQHVGAKCDNCGIEPIQGVRWHCQDCPPEMSLDFCDSCSDCLHETDIHKEDHQLEPIYRSETFLDRDYCVSQGTSYNYLDPNYFPANR

Source: paper PMC6138639, “The ZZ-type zinc finger of ZZZ3 modulates the ATAC complex-mediated histone acetylation and gene activation” (Nature Communications, 2018)
